Assays:
QYC cells = assay: Antibody-dependent cell mediated cytotoxicity (ADCC); assay type: cell-based, human; conditions: PBL effector to target ratio 20:1, 7 h, FIG. 7
Method: Venous blood was taken sterilely from healthy donor and put into sterile 15 ml centrifuge tube containing 20 U/ml heparin. The solution was carefully mixed and equal volume of sterilized PBS was added to dilute the blood.
In a 15 ml centrifuge tube, 6 ml room temperature pre-warmed 100% lymphocytes isolation fluid (obtained from CACS, Cellular Biology Institute) was added. Along the tube wall of the tilted tube, 6 ml diluted anti-coagulation peripheral blood was added slowly into the tube without damaging the interface.
The tube was centrifuged at 20° C., 800 g for 30 min with brake turned off. After the centrifuge, three layers were formed. The three layers (from above to the bottom) were blood plasma layer, cell separation liquid layer, red and granular cell layer. A white frosted glass-like layer between the plasma layer and cell separation liquid layer was the layer containing lymphocytes and mononuclear cells. This white layer was taken out using a pipette and put into another 15 ml sterile centrifuge tube. PBS was added into the centrifuge tube to dilute the PBL suspension and then centrifuged at 200 g for 5 min. The pellet was washed 2 times with PBS. […]
QYC cells at the logistically growing stage were taken out from incubator. […] Cells were counted, and the concentration was adjusted to 3×10^5/ml. […]
Cytotoxicity Detection Kit by Roche's Corporation was used. […] OD was read at 490 nm.

[1] = system: human hepatocellular carcinoma cell line QYC; assay: Therapeutic effect in QYC-bearing nude mice; assay type: in vivo; conditions: 4 mg/kg/week tail vein, after 6 weeks, FIG. 9
Method: Chimeric and humanized anti-SM5-1 monoclonal antibodies, and humanized and chimeric anti-CD3 antibodies were tested for their therapeutic effects in QYC bearing nude mice.
Forty female nude mice were inoculated s.c with QYC. After seven weeks, tumor masses reached 0.5 cm in diameter. These mice were randomly divided into 5 groups: 8 mice for PBS group; 8 mice for non-related antibody, chimeric anti-human CD3 mAb, 4 mg/kg; 8 mice for humanized anti-human CD3 mAb, 4 mg/kg; 8 mice for anti-human SM5-1 chimeric mAb, 4 mg/kg; 8 mice for anti-human SM5-1 humanized mAb, 4 mg/kg.
Four mAbs were diluted into final concentration 0.4 mg/ml with PBS. Mice were tail vein injected at 4 mg/kg/week through tail vein, with the control injected equal volume of PBS. According to body weight of nude mice, injection volume was about 250 ul for each nude mouse.
After 6 weeks, size of the tumor mass was measured in each mouse and statistical analyzed. […] These antibodies may function via ADCC and/or CDC.

| Molecule | anti-neoplasm effect via ADCC (QYC cells) | size of the tumor mass [1] |
| --- | --- | --- |
| chSM5-1: mouse-human chimeric antibody with mSM5-1 variable regions (SEQ ID NO:3, 4) and human constant regions (antibody, V domains shown, human constant regions; Mus Musculus) VH: EVQLQQSGPELVKPGASVKMSCKASGYTFTSYVMHWVKQKPGQGLDWIGYIVPYNDGTKYNEKFKGKATLTSDKSSSTAYMELSRLTSEDSAVYYCVYGSRYDWYLDVWGAGTTVTVSS VL: NIMMTQSPSSLAVSAGEKVTMSCKSSQSVLYSSNQKNYLAWYQQKPGQSPKLLIYWASTRESGVPDRFTGSGSGTDFTLTISSVQAEDLAVYYCHQYFSSYTFGGGTKLEIKR | induced the apoptosis and inhibit the growth of tumor cells through ADCC pathway | effective in controlling the size of the tumor mass |
| humanized anti-SM5-1 antibody (ReSM5-1) (antibody, V domains shown) VH: QVQLVQSGGGVVQPGRSLRLSCKASGYTFTSYVMHWVRQAPGKGLEWIGYIVPYNDGTKYNEKFKGRFTISSDKSKSTAFLQMDSLRPEDTAVYYCARGSRYDWYLDYWGQGTPVTVSS VL: NIMMTQSPSSLSASVGDRVTITCKSSQSVLYSSNQKNYLAWYQQTPGKAPKLLIYWASTRESGVPSRFSGSGSGTDYTFTISSLQPEDIATYYCHQYFSSYTFGQGTKLQITR | induced the apoptosis and inhibit the growth of tumor cells through ADCC pathway | effective in controlling the size of the tumor mass |

Source: patent publication US20050232926A1, “Antibodies specific for cancer associated antigen SM5-1 and uses thereof” (Oncomax Acquisition Corp., priority 2003, published 2005)
